Series [1] concerns the target AdeS histidine kinase transmitter domain (DHp-CA) (Acinetobacter baumannii). Put plainly: SEC. On the technique in general: Size exclusion chromatography separates by hydrodynamic size, large species first.
Series [2] shares this target. Put plainly: SAXS.
In series [3] the target is AdeS full cytoplasmic domain (HAMP-DHp-CA) (Acinetobacter baumannii). Put plainly: SEC.
The target is the same in series [4]. Nature of the series: SAXS.
Substrate in the series “purified protein”: Nc1ncnc2c1ncn2[C@@H]1O[C@H](COP(=O)(O)OP(=O)(O)OP(=O)(O)O)[C@@H](O)[C@H]1O
Put plainly: purified protein. Particulars: autophosphorylation; hexameric cytoplasmic domain.

For orientation: stoichiometry N means a count of units in the complex or per binding partner. In general, Km refers to the concentration of substrate that gives half-maximal velocity.

With “AdeS histidine kinase transmitter domain (DHp-CA) (domain or fragment)”, the stoichiometry N in series [1] and in series [2] was 2 in each case.

On to “AdeS full cytoplasmic domain (HAMP-DHp-CA) (domain or fragment)”, for which the stoichiometry N in series [3] and in series [4] was 6 each time.

B1: AdeS cytoplasmic domain (HAMP-DHp-CA) (Acinetobacter baumannii) (protein)
chain: KRFIVPINFLAEAAKKISHGDLSARAYDNRIHFAEMSELLYNFNDMAQKLEVSVKNAQVWNAAIAHELRTPITILQGRLQGIIDGVFKPDEVLFKSLLNQVEVLSHLVEDLRTLSLVENQQLRLNYELFDFKAVVEKVLKAFEDRLDQAKLVPELDLTSTPVYCDRRRIEQVLIALIDNAIRYSHAGKLKISSEVVSQNWILKIEDEGPGIATEFQDDLFKPFFRLEESRNKEFGGTGLGLAVVHAIIVALKGTIQYSNQGSKSIFTIKISMNN
As for B1, the Km in “purified protein” was 5.25 ± 0.20 µM.

Source of the values: PMC8169943.
